# Test results taken from patent US20230251254A1, “METHOD FOR EVALUATING INTERACTION BETWEEN IMMOBILIZED SUBSTANCE IMMOBILIZED DIRECTLY OR INDIRECTLY ON SUBSTRATE AND PROXIMITY-DEPENDENT MODIFYING ENZYMELABELED SUBSTANCE TO BE ANALYZED” (CELLFREE SCIENCES CO.,LTD., priority 2020, published 2023).
# B1: AirID-fused Iκβα (other)
# chain: MKDNTVPLTLISILADGEFHSGEQLGEQLGMSRAAINKHIKTLRDWGVDVFRVQGKGYCLPEPIQLLDEEKIRQQLDEGSVTVLPVIDSTNQYLLDRLDELTSGDVCIAEYQQAGRGSRGRKWFSPFGANLYLSMYWRLEQGPAAAMGLSLVIGIVMAETLQKLGADGVRVKWPNDLYLNDRKLAGILVEMTGKTGDAAHIVIGAGINLSMREPETDEVDQSWINLQEAGITIDRNQLAARLIKDLRSALRQFEQQGLAPFLSRWEALDNFINRPVKLIIGDREIHGIARGINEQGALLLEQDGVIKPWIGGEISLRSAMFQAAERPQEWAMEGPRDGLKKERLLDDRHDSGLDSMKDEEYEQMVKELQEIRLEPQEVPRSSEPWKQQLTEDGDSFLHLAIIHEEKALTMEVIRQVKGDLAFLNFQNNLQQTPLHLAVITNQPEIAEALLGAGCDPELRDFRGNTPLHLACEQGCLASVGVLTQSCTTPHLHSILKATNYNGHTCLHLASIHGYLGIVELLVSLGADVNAQEPCNGRTALHLAVDLQNPDLVSLLLKCGADVNRVTYQGYSPYQLTWGRPSTRIQQQLGQLTLENLQMLPESEDEESYDTESEFTEFTEDELPYDDCVFGGQRLTL
# notes: Fusion made in a wheat cell-free system; also called AirID-fused substance to be analyzed (Iκβα)
# B2: AVVA-R118S,Q141R mutant-fused Iκβα (other)
# fusion protein: MSEQWSRKREILALLSSGHFVSGEELATQLGISRTAVSKHIAALEEYGVDIYSVKGKGYKLANPISLIDESKLKSAINNRCFYFDEIPSTNGFMLKHAEELKSGDICVAEYQSAGRGSRGRTWVSPYGCHLYFSLYWRFPRGMAQAMGLSLVVACSLVKVLKSFGVDGVGVKWPNDIYLNHKKLAGVLIEMSGQADSECHLVIGIGINMAMSEQQGKKIDQPWSDLSSLTSMPDKTELLIALQKQLKQDLELFEREGLKAFQPRWQEADLFYGKQIKLLMGENQVEGICRGIDEQGAVLLETDDGIQAFIGGEISLRAAMFQAAERPQEWAMEGPRDGLKKERLLDDRHDSGLDSMKDEEYEQMVKELQEIRLEPQEVPRSSEPWKQQLTEDGDSFLHLAIIHEEKALTMEVIRQVKGDLAFLNFQNNLQQTPLHLAVITNQPEIAEALLGAGCDPELRDFRGNTPLHLACEQGCLASVGVLTQSCTTPHLHSILKATNYNGHTCLHLASIHGYLGIVELLVSLGADVNAQEPCNGRTALHLAVDLQNPDLVSLLLKCGADVNRVTYQGYSPYQLTWGRPSTRIQQQLGQLTLENLQMLPESEDEESYDTESEFTEFTEDELPYDDCVFGGQRLTL
# What was measured:
# FLAG-GST-fused MDM2 [1] = target: T1, FLAG-GST-fused MDM2 (UniProt P23804 1-489); assay: proximity-biotinylation bead array, streptavidin-HRP luminescence; labeling 37°C 24 h; exposure 10 min
# T1 construct: Immobilized on glutathione magnetic beads on the non-denatured protein array; Order of the parts follows the printed name FLAG-GST; also called FLAG-GST-fused immobilized substance (MDM2); not shown: FLAG tag protein; GST protein (glutathione S-transferase tag)
# T1 sequence (P23804 whole entry, the tested form may be a part): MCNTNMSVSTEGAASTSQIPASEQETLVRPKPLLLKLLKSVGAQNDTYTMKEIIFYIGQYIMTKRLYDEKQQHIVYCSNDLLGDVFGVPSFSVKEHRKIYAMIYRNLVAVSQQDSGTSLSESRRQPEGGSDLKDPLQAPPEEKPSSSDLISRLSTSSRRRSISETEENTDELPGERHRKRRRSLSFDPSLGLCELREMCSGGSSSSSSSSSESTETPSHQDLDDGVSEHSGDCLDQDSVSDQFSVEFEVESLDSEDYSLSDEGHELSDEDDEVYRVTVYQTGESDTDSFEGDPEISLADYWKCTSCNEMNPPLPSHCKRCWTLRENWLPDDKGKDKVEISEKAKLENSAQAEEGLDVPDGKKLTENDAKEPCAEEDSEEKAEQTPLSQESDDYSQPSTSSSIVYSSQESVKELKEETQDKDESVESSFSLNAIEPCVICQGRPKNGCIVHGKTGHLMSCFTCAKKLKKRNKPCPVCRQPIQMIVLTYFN
# FLAG-GST-fused RelA [2] = target: T2, FLAG-GST-fused RelA (UniProt Q04206 1-551); assay: proximity-biotinylation bead array, streptavidin-HRP luminescence; labeling 26°C 1 h; exposure 3 min; the filing calls the signal on this pair non-specific
# T2 construct: Immobilized on glutathione magnetic beads on the non-denatured protein array; Order of the parts follows the printed name FLAG-GST; also called FLAG-GST-fused immobilized substance (RelA); not shown: FLAG tag protein; GST protein (glutathione S-transferase tag)
# T2 sequence (Q04206 other isoform, or with tags, fused parts or gaps): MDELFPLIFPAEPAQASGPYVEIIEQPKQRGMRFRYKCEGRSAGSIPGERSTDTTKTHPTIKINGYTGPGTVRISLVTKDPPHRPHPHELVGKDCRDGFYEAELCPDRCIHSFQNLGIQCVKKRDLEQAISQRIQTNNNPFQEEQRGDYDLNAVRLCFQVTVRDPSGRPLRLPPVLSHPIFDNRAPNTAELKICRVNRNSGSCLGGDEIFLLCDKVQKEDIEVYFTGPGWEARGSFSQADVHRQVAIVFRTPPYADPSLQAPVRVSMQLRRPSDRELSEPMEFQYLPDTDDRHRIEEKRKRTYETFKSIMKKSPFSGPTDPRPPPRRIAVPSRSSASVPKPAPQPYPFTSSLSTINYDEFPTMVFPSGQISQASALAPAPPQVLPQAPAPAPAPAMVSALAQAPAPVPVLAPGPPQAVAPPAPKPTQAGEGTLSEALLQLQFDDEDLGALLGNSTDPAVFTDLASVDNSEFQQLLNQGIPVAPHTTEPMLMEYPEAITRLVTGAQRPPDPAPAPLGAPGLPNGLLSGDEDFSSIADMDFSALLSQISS
# FLAG-GST-fused RelA [3] = target: T2, FLAG-GST-fused RelA; assay: proximity-biotinylation bead array, streptavidin-HRP luminescence; labeling 26°C 3 h; exposure 3 min; the filing calls the signal on this pair non-specific
# FLAG-GST-fused RelA [4] = target: T2, FLAG-GST-fused RelA; assay: proximity-biotinylation bead array, streptavidin-HRP luminescence; labeling 26°C 30 min; exposure 3 min; the filing calls the signal on this pair non-specific
# FLAG-GST-fused MDM2 [5] = target: T1, FLAG-GST-fused MDM2; assay: proximity-biotinylation bead array, streptavidin-HRP luminescence; labeling 26°C 1 h; exposure 3 min; the filing calls the signal on this pair non-specific
# FLAG-GST-fused MDM2 [6] = target: T1, FLAG-GST-fused MDM2; assay: proximity-biotinylation bead array, streptavidin-HRP luminescence; labeling 26°C 3 h; exposure 3 min; the filing calls the signal on this pair non-specific
# FLAG-GST-fused MDM2 [7] = target: T1, FLAG-GST-fused MDM2; assay: proximity-biotinylation bead array, streptavidin-HRP luminescence; labeling 26°C 30 min; exposure 3 min; the filing calls the signal on this pair non-specific
# FLAG-GST-fused RelA [8] = target: T2, FLAG-GST-fused RelA; assay: proximity-biotinylation bead array, streptavidin-HRP luminescence; labeling 37°C 24 h; exposure 10 min
# CRBN and IKZF1 [9] = target: T3, CRBN and IKZF1 (Homo sapiens, UniProt Q96SW2); details: stated as known; cited from earlier work
# T3 sequence (Q96SW2 whole entry): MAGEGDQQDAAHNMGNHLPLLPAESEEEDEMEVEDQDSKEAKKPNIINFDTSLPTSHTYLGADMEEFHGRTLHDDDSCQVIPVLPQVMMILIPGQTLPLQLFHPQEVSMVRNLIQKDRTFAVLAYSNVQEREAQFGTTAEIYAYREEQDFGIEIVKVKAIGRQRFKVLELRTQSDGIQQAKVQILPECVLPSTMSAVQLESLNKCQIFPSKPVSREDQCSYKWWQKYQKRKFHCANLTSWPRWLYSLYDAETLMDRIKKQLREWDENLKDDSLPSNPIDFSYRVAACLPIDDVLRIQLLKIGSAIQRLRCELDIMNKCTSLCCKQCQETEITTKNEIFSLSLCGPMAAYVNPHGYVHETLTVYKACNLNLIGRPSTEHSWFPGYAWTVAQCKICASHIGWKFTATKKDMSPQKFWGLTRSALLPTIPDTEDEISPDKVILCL
# T3 sequence (as listed by the source): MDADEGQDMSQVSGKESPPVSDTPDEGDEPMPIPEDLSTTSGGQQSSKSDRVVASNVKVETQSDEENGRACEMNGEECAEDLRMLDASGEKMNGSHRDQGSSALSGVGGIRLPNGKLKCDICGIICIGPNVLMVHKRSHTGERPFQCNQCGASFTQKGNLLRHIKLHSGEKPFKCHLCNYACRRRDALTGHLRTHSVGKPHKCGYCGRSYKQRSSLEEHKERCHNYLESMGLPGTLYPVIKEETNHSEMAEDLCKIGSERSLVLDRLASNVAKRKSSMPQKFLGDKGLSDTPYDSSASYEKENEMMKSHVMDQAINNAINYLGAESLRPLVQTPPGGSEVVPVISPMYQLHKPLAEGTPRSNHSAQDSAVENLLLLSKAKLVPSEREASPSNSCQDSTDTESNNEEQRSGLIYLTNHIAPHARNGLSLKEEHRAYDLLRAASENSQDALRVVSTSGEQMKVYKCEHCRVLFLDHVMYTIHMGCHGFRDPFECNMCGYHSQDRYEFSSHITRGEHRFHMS
# CRBN and IKZF1 [10] = target: CRBN and IKZF1 (Homo sapiens, UniProt Q96SW2, W386A/Y384A); details: mutant CRBN having a mutation in its binding site for the compound
# Chain of CRBN and IKZF1 (Homo sapiens, UniProt Q96SW2, W386A/Y384A) (Q96SW2 whole entry Y384A/W386A): as the sequence (Q96SW2 whole entry) above, with Y384A, W386A counted along it
# Description: (§1) In this Example, an interaction between proteins known to bind to each other, CRBN (SEQ ID NO: 7) and IKZF1 (SEQ ID NO: 6) or SALL4 (SEQ ID NO: 9), was analyzed. […] In view of this, the compound (thalidomide derivative) was added to a buffer to be used for a reaction to analyze how CRBN interacted with IKZF1 or SALL4 in a compound-dependent (binding recruiter) manner. The flow of this Example is illustrated in FIG. 3.
# (§2) As a substance to be analyzed (protein), template DNA in which CRBN was fused to AirID and template DNA in which a mutant CRBN (SEQ ID NO: 8) having a mutation introduced into its binding site for the thalidomide derivative was fused to AirID were synthesized. As an immobilized substance (protein), template DNA was synthesized by fusing IKZF1, SALL4, or Venus (control) for comparison to a FLAG™ tag protein and a GST protein.
# (§3) The synthesized template DNAs were used to synthesize AirID-fused substances to be analyzed and FLAG™-GST-fused immobilized substances through use of a wheat cell-free expression system.
# (§4) The FLAG™-GST-fused immobilized substance (IKZF1, SALL4, or Venus) was bound to glutathione magnetic beads, followed by purification. The magnetic beads after the purification were dispensed and arranged on the wells of the plate, and immobilized by the magnetic force of the magnet plate.
# (§5) The AirID-fused substance to be analyzed (CRBN or mutant CRBN) diluted with a reaction buffer containing biotin and ATP was allowed to react with the FLAG™-GST-fused immobilized substance (IKZF1, SALL4, or Venus) on the magnetic beads to perform biotin labeling of the FLAG™-GST-fused immobilized substance.
# (§6) In order to remove the AirID-fused substance to be analyzed that was free in the reaction buffer or adsorbed onto the magnetic beads, the reaction buffer was removed and then washing was performed a plurality of times with a washing buffer.
# CRBN and SALL4 [11] = target: T4, CRBN and SALL4 (Homo sapiens, UniProt Q96SW2); details: compound added to reaction buffer; AirID-fused CRBN
# T4 sequence (as listed by the source): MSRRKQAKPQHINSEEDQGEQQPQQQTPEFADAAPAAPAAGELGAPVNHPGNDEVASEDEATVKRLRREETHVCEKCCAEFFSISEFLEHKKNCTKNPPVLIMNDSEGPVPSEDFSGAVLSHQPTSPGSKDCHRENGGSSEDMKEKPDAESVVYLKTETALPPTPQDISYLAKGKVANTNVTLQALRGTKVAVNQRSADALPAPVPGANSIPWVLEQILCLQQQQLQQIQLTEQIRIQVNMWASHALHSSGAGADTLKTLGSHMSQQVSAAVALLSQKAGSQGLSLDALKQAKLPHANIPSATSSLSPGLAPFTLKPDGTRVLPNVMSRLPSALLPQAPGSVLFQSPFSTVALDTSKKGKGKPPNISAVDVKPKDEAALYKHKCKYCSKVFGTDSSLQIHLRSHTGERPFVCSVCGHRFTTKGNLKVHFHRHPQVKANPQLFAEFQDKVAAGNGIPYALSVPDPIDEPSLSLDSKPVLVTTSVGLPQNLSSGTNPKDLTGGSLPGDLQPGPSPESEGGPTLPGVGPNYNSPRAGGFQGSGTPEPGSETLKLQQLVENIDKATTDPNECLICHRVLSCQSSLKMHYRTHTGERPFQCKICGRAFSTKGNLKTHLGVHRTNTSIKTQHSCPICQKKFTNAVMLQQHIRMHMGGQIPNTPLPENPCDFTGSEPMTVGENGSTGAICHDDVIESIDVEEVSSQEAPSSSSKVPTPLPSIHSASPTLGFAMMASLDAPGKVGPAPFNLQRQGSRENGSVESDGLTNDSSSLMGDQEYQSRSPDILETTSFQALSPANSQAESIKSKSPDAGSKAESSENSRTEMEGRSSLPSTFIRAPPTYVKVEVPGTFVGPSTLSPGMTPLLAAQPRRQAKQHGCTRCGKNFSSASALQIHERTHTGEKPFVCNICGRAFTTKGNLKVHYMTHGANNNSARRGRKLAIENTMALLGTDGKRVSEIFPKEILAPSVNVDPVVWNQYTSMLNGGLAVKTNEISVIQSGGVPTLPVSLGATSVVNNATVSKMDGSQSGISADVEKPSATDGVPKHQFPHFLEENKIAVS
# T4 sequence (Q96SW2 whole entry, the tested form may be a part): as the sequence (Q96SW2 whole entry) above
# Description: as §1, §2, §3, §4, §5, §6
# CRBN and IKZF1 [12] = target: T3, CRBN and IKZF1; details: compound added to reaction buffer; AirID-fused CRBN
# Description: as §1, §2, §3, §4, §5, §6
# CRBN and SALL4 [13] = target: CRBN and SALL4 (Homo sapiens, UniProt Q96SW2, W386A/Y384A); details: mutant CRBN having a mutation in its binding site for the compound
# Chain of CRBN and SALL4 (Homo sapiens, UniProt Q96SW2, W386A/Y384A) (Q96SW2 whole entry Y384A/W386A): as the sequence (Q96SW2 whole entry) above, with Y384A, W386A counted along it
# Description: as §1, §2, §3, §4, §5, §6
# CRBN and SALL4 [14] = target: T4, CRBN and SALL4; details: stated as known; cited from earlier work
# MDM2 = target: T5, MDM2 (Mus musculus, UniProt P23804); assay: AirID proximity-dependent biotin labeling on non-denatured protein array, TP53 and MDM2 (Example 2); format: binding; details: AirID-fused TP53; FLAG-GST-MDM2 on magnetic beads; HRP-labeled streptavidin
# T5 construct: made in house; host or cells: wheat cell-free protein synthesis
# T5 sequence (P23804 whole entry, the tested form may be a part): as the sequence (P23804 whole entry, the tested form may be a part) above
# From the text: (§7) As a substance to be analyzed, template DNA in which TP53 (SEQ ID NO: 4) or Iκβα (SEQ ID NO: 5) was fused to AirID (SEQ ID NO: 3) was synthesized. As an immobilized substance (target protein), template DNA in which MDM2 (SEQ ID NO: 10), RelA (SEQ ID NO: 11), or any one of 10 kinds of proteins (controls) for comparison was fused to a FLAG™ tag protein and a GST protein was synthesized.
# (§8) Thus, a non-denatured protein array was produced.
# FLAG-GST-fused MDM2 [15] = target: T1, FLAG-GST-fused MDM2; assay: proximity-biotinylation bead array, streptavidin-HRP luminescence; labeling 26°C 1 h; exposure 10 min
# FLAG-GST-fused RelA [16] = target: T2, FLAG-GST-fused RelA; assay: as above
# FLAG-GST-fused MDM2 [17] = target: T1, FLAG-GST-fused MDM2; assay: proximity biotinylation by AirID fusion on bead protein array, streptavidin-HRP luminescence image
# Description: The washing buffer was removed, and an HRP-labeled streptavidin solution diluted with the reaction buffer was added and allowed to react with the FLAG™-GST-fused immobilized substance on the magnetic beads. In order to remove free streptavidin, the reaction buffer was removed and then washing was performed a plurality of times with a washing buffer. After the removal of the washing buffer, a chemiluminescence reagent was added and subjected to a reaction. The resultant luminescence was detected with LAS4000 (manufactured by GE Healthcare) to provide measurement images.
# FLAG-GST-fused MDM2 [18] = target: T1, FLAG-GST-fused MDM2; assay: proximity-biotinylation bead array, streptavidin-HRP luminescence; labeling 26°C 3 h; exposure 10 min
# FLAG-GST-fused RelA [19] = target: T2, FLAG-GST-fused RelA; assay: as above
# RelA = target: T6, RelA (Homo sapiens, UniProt Q04206); assay: AirID proximity-dependent biotin labeling on non-denatured protein array, Iκβα and RelA (Example 2); format: binding; details: AirID-fused Iκβα; FLAG-GST-RelA on magnetic beads; HRP-labeled streptavidin
# T6 construct: made in house; host or cells: wheat cell-free expression system
# T6 sequence (Q04206 1-548 isoform Q04206-4): as the sequence (Q04206 other isoform, or with tags, fused parts or gaps) above
# From the text: as §7, §8
# FLAG-GST-fused MDM2 [20] = target: T1, FLAG-GST-fused MDM2; assay: proximity-biotinylation bead array, streptavidin-HRP luminescence; labeling 26°C 30 min; exposure 10 min
# FLAG-GST-fused RelA [21] = target: T2, FLAG-GST-fused RelA; assay: as above
# FLAG-GST-fused MDM2 [22] = target: T1, FLAG-GST-fused MDM2; assay: proximity-biotinylation bead array, streptavidin-HRP luminescence; labeling 26°C; exposure 10 min
molecule,measurement,setting,value
BioID-fused Iκβα,signal value,FLAG-GST-fused MDM2 [1],4530
TurboID-fused TP53,signal value,FLAG-GST-fused RelA [2],> 65000
same,signal value,FLAG-GST-fused RelA [3],> 65000
same,signal value,FLAG-GST-fused RelA [4],10200
TurboID-fused Iκβα,signal value,FLAG-GST-fused MDM2 [5],> 65000
same,signal value,FLAG-GST-fused MDM2 [6],> 65000
same,signal value,FLAG-GST-fused MDM2 [7],7030
BioID-fused TP53,signal value,FLAG-GST-fused RelA [8],1860
Nc1cccc2c1C(=O)N(C1CCC(=O)NC1=O)C2=O (stereo not drawn) [Pomalidomide],effect on binding of CRBN and IKZF1,CRBN and IKZF1 [9],enhance their binding
same,luminescence intensity of mutant CRBN and IKZF1,CRBN and IKZF1 [10],hardly any increase
same,luminescence intensity of CRBN and SALL4,CRBN and SALL4 [11],particularly increased
same,luminescence intensity of CRBN and IKZF1,CRBN and IKZF1 [12],particularly increased
same,luminescence intensity of mutant CRBN and SALL4,CRBN and SALL4 [13],hardly any increase
same,effect on binding of CRBN and SALL4,CRBN and SALL4 [14],enhance their binding
"TP53: TP53 (SEQ ID NO: 4), fused to AirID as substance to be analyzed in Example 2",luminescence (biotin detection) between TP53 and MDM2,MDM2,recognized
B1,signal value,FLAG-GST-fused MDM2 [15],690
same,signal value,FLAG-GST-fused RelA [16],28000
same,binding result,FLAG-GST-fused MDM2 [17],no binding
same,signal value,FLAG-GST-fused MDM2 [18],520
same,signal value,FLAG-GST-fused RelA [19],48000
same,luminescence (biotin detection) between Iκβα and RelA,RelA,recognized
same,signal value,FLAG-GST-fused MDM2 [20],370
same,signal value,FLAG-GST-fused RelA [21],7940
B2,signal value,FLAG-GST-fused MDM2 [15],190
same,signal value,FLAG-GST-fused RelA [16],37500
same,signal value,FLAG-GST-fused MDM2 [18],230
same,signal value,FLAG-GST-fused RelA [19],> 65000
same,binding result,FLAG-GST-fused MDM2 [22],no binding
same,signal value,FLAG-GST-fused MDM2 [20],120
same,signal value,FLAG-GST-fused RelA [21],10400
